Measurements published in US20090022728A1 (RINAT NEUROSCIENCE, published 2009).

Key:
[1] = target: T1, biotinylated Aβ1-40 peptide (biotinylated (N-biotinylated in Example 7)); test: SPR, Fab over Aβ1-40 on SA chip; KD=koff/kon
T1 construct: captured on streptavidin (SA) chip; also called Biotinylated Aβ peptide 1-40; Aβ1-40 on SA chip
Procedure: (§1) Affinities of 9TL Fab fragment and its variants Fab fragments were determined by Surface Plasmon Resonance (SPR) system (BIAcore 3000™, BIAcore, Inc., Piscaway, N.J.). SA chips (streptavidin) were used according to the supplier's instructions. Biotinylated Aβ peptide 1-40 was diluted into HBS-EP (10 mM HEPES pH 7.4, 150 mM NaCl, 3 mM EDTA, 0.005% P20) and injected over the chip at a concentration of 0.005 mg/mL. Using variable flow time across the individual chip channels, two ranges of antigen density were achieved: 10-200 response units (RU) for detailed kinetic studies and 500-600 RU for concentration studies and screening. […] HBS-EP buffer was used as running buffer for all the BIAcore assays. […] The concentrations of the Fab proteins were determined by ELISA and/or SDS-PAGE electrophoresis using a standard Fab of known concentration (determined by amino acid analysis). Kinetic association rates (kₒₙ) and dissociation rates (koff) were obtained simultaneously by fitting the data to a 1:1 Langmuir binding model (Karlsson, R. Roos, H. Fagerstam, L. Petersson, B. (1994). Methods Enzymology 6. 99-110) using the BIAevaluation program. Equilibrium dissociation constant (KD) values were calculated as koff/kₒₙ.
(§2) All amino acid substitutions of the variants shown in Table 3 are described relative to the sequence of 9TL. KD and other kinetic parameters were determined by BIAcore analysis described above with Aβ₁₋₄₀ immobilized on SA chip.

[2] = target: T1, biotinylated Aβ1-40 peptide; test: SPR, Fab over Aβ1-40 on SA chip; kon may be assumed = 9TL (footnote 2)
Procedure: as §1, §2

[3] = target: T1, biotinylated Aβ1-40 peptide; test: SPR, Fab over Aβ1-40 on SA chip
Procedure: as §1, §2

T1 sequence (peptide, as listed by the source): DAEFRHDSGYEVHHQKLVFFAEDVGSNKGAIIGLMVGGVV

Binder	Kd [1] [nM]	kon [2] [M⁻¹ s⁻¹]	koff [3] [s⁻¹]
9TL variant M14 Fab (Fab, V domains shown, Fab; human IgG2 CH1 and kappa CL) VH: QVQLVQSGAEVKKPGASVKVSCKASGYYTEAYYIHWVRQAPGQGLEWMGRIDPATGNTKYAPRLQDRVTMTRDTSTSTVYMELSSLRSEDTAVYYCASLYSLPVYWGQGTTVTVSS VL: DVVMTQSPLSLPVTLGQPASISCKSSQSLLYSDAKTYLNWFQQRPGQSPRRLIYQISRLDPGVPDRFSGSGSGTDFTLKISRVEAEDVGVYYCLQGTLYPVLFGQGTRLEIKR	5.03	318000	0.0016
9TL variant M15 Fab (Fab, V domains shown, Fab; human IgG2 CH1 and kappa CL) VH: QVQLVQSGAEVKKPGASVKVSCKASGYYTEAYYIHWVRQAPGQGLEWMGRIDPATGNTKYAPRLQDRVTMTRDTSTSTVYMELSSLRSEDTAVYYCASLYSLPVYWGQGTTVTVSS VL: DVVMTQSPLSLPVTLGQPASISCKSSQSLLYSDAKTYLNWFQQRPGQSPRRLIYQISRLDPGVPDRFSGSGSGTDFTLKISRVEAEDVGVYYCLQGTHPPVLFGQGTRLEIKR	2.11	318000	0.00067
9TL variant M21 Fab (Fab, V domains shown, Fab; human IgG2 CH1 and kappa CL) VH: QVQLVQSGAEVKKPGASVKVSCKASGYYTEAYYIHWVRQAPGQGLEWMGRIDPATGNTKYAPRLQDRVTMTRDTSTSTVYMELSSLRSEDTAVYYCASLYSLPVYWGQGTTVTVSS VL: DVVMTQSPLSLPVTLGQPASISCKSSQSLLYSDAKTYLNWFQQRPGQSPRRLIYQISRLDPGVPDRFSGSGSGTDFTLKISRVEAEDVGVYYCLQGTHEPVLFGQGTRLEIKR	15.7	318000	0.005
9TL variant M28 Fab (Fab, V domains shown, Fab; human IgG2 CH1 and kappa CL) VH: QVQLVQSGAEVKKPGASVKVSCKASGYYTEAYYIHWVRQAPGQGLEWMGRIDPATGNTKYAPRLQDRVTMTRDTSTSTVYMELSSLRSEDTAVYYCASLYSLPVYWGQGTTVTVSS VL: DVVMTQSPLSLPVTLGQPASISCKSSQSLLYSDAKTYLNWFQQRPGQSPRRLIYQISRLDPGVPDRFSGSGSGTDFTLKISRVEAEDVGVYYCLQGTHYPMLFGQGTRLEIKR	44	318000	0.014
9TL variant M18 Fab (Fab, V domains shown, Fab; human IgG2 CH1 and kappa CL) VH: QVQLVQSGAEVKKPGASVKVSCKASGYYTEAYYIHWVRQAPGQGLEWMGRIDPATGNTKYAPRLQDRVTMTRDTSTSTVYMELSSLRSEDTAVYYCASLYSLPVYWGQGTTVTVSS VL: DVVMTQSPLSLPVTLGQPASISCKSSQSLLYSDAKTYLNWFQQRPGQSPRRLIYQISRLDPGVPDRFSGSGSGTDFTLKISRVEAEDVGVYYCLQGTHQPVLFGQGTRLEIKR	4.72	318000	0.0015
9TL variant M17 Fab (Fab, V domains shown, Fab; human IgG2 CH1 and kappa CL) VH: QVQLVQSGAEVKKPGASVKVSCKASGYYTEAYYIHWVRQAPGQGLEWMGRIDPATGNTKYAPRLQDRVTMTRDTSTSTVYMELSSLRSEDTAVYYCASLYSLPVYWGQGTTVTVSS VL: DVVMTQSPLSLPVTLGQPASISCKSSQSLLYSDAKTYLNWFQQRPGQSPRRLIYQISRLDPGVPDRFSGSGSGTDFTLKISRVEAEDVGVYYCLQGTHWPVLFGQGTRLEIKR	3.14	318000	0.001
9TL variant M29 Fab (Fab, V domains shown, Fab; human IgG2 CH1 and kappa CL) VH: QVQLVQSGAEVKKPGASVKVSCKASGYYTEAYYIHWVRQAPGQGLEWMGRIDPATGNTKYAPRLQDRVTMTRDTSTSTVYMELSSLRSEDTAVYYCASLYSLPVYWGQGTTVTVSS VL: DVVMTQSPLSLPVTLGQPASISCKSSQSLLYSDAKTYLNWFQQRPGQSPRRLIYQISRLDPGVPDRFSGSGSGTDFTLKISRVEAEDVGVYYCLQGTHYPVSFGQGTRLEIKR	2.39	318000	0.00076
9TL variant M19 Fab (Fab, V domains shown, Fab; human IgG2 CH1 and kappa CL) VH: QVQLVQSGAEVKKPGASVKVSCKASGYYTEAYYIHWVRQAPGQGLEWMGRIDPATGNTKYAPRLQDRVTMTRDTSTSTVYMELSSLRSEDTAVYYCASLYSLPVYWGQGTTVTVSS VL: DVVMTQSPLSLPVTLGQPASISCKSSQSLLYSDAKTYLNWFQQRPGQSPRRLIYQISRLDPGVPDRFSGSGSGTDFTLKISRVEAEDVGVYYCLQGTHMPVLFGQGTRLEIKR	5.35	318000	0.0017
9TL variant M25 Fab (Fab, V domains shown, Fab; human IgG2 CH1 and kappa CL) VH: QVQLVQSGAEVKKPGASVKVSCKASGYYTEAYYIHWVRQAPGQGLEWMGRIDPATGNTKYAPRLQDRVTMTRDTSTSTVYMELSSLRSEDTAVYYCASLYSLPVYWGQGTTVTVSS VL: DVVMTQSPLSLPVTLGQPASISCKSSQSLLYSDAKTYLNWFQQRPGQSPRRLIYQISRLDPGVPDRFSGSGSGTDFTLKISRVEAEDVGVYYCLQGTHYPTLFGQGTRLEIKR	25.2	318000	0.008
9TL variant M27 Fab (Fab, V domains shown, Fab; human IgG2 CH1 and kappa CL) VH: QVQLVQSGAEVKKPGASVKVSCKASGYYTEAYYIHWVRQAPGQGLEWMGRIDPATGNTKYAPRLQDRVTMTRDTSTSTVYMELSSLRSEDTAVYYCASLYSLPVYWGQGTTVTVSS VL: DVVMTQSPLSLPVTLGQPASISCKSSQSLLYSDAKTYLNWFQQRPGQSPRRLIYQISRLDPGVPDRFSGSGSGTDFTLKISRVEAEDVGVYYCLQGTHYPELFGQGTRLEIKR	37.7	318000	0.012
9TL variant M20 Fab (Fab, V domains shown, Fab; human IgG2 CH1 and kappa CL) VH: QVQLVQSGAEVKKPGASVKVSCKASGYYTEAYYIHWVRQAPGQGLEWMGRIDPATGNTKYAPRLQDRVTMTRDTSTSTVYMELSSLRSEDTAVYYCASLYSLPVYWGQGTTVTVSS VL: DVVMTQSPLSLPVTLGQPASISCKSSQSLLYSDAKTYLNWFQQRPGQSPRRLIYQISRLDPGVPDRFSGSGSGTDFTLKISRVEAEDVGVYYCLQGTHSPVLFGQGTRLEIKR	6.29	318000	0.002
9TL variant M24 Fab (Fab, V domains shown, Fab; human IgG2 CH1 and kappa CL) VH: QVQLVQSGAEVKKPGASVKVSCKASGYYTEAYYIHWVRQAPGQGLEWMGRIDPATGNTKYAPRLQDRVTMTRDTSTSTVYMELSSLRSEDTAVYYCASLYSLPVYWGQGTTVTVSS VL: DVVMTQSPLSLPVTLGQPASISCKSSQSLLYSDAKTYLNWFQQRPGQSPRRLIYQISRLDPGVPDRFSGSGSGTDFTLKISRVEAEDVGVYYCLQGTHYPHLFGQGTRLEIKR	18.9	318000	0.006
9TL variant M30 Fab (Fab, V domains shown, Fab; human IgG2 CH1 and kappa CL) VH: QVQLVQSGAEVKKPGASVKVSCKASGYYTEAYYIHWVRQAPGQGLEWMGRIDPATGNTKYAPRLQDRVTMTRDTSTSTVYMELSSLRSEDTAVYYCASLYSLPVYWGQGTTVTVSS VL: DVVMTQSPLSLPVTLGQPASISCKSSQSLLYSDAKTYLNWFQQRPGQSPRRLIYQISRLDPGVPDRFSGSGSGTDFTLKISRVEAEDVGVYYCLQGTHYPVVFGQGTRLEIKR	2.14	318000	0.00068
9TL variant M22 Fab (Fab, V domains shown, Fab; human IgG2 CH1 and kappa CL) VH: QVQLVQSGAEVKKPGASVKVSCKASGYYTEAYYIHWVRQAPGQGLEWMGRIDPATGNTKYAPRLQDRVTMTRDTSTSTVYMELSSLRSEDTAVYYCASLYSLPVYWGQGTTVTVSS VL: DVVMTQSPLSLPVTLGQPASISCKSSQSLLYSDAKTYLNWFQQRPGQSPRRLIYQISRLDPGVPDRFSGSGSGTDFTLKISRVEAEDVGVYYCLQGTHYPLLFGQGTRLEIKR	12.6	318000	0.004
9TL variant M16 Fab (Fab, V domains shown, Fab; human IgG2 CH1 and kappa CL) VH: QVQLVQSGAEVKKPGASVKVSCKASGYYTEAYYIHWVRQAPGQGLEWMGRIDPATGNTKYAPRLQDRVTMTRDTSTSTVYMELSSLRSEDTAVYYCASLYSLPVYWGQGTTVTVSS VL: DVVMTQSPLSLPVTLGQPASISCKSSQSLLYSDAKTYLNWFQQRPGQSPRRLIYQISRLDPGVPDRFSGSGSGTDFTLKISRVEAEDVGVYYCLQGTHAPVLFGQGTRLEIKR	2.2	318000	0.0007
9TL variant M26 Fab (Fab, V domains shown, Fab; human IgG2 CH1 and kappa CL) VH: QVQLVQSGAEVKKPGASVKVSCKASGYYTEAYYIHWVRQAPGQGLEWMGRIDPATGNTKYAPRLQDRVTMTRDTSTSTVYMELSSLRSEDTAVYYCASLYSLPVYWGQGTTVTVSS VL: DVVMTQSPLSLPVTLGQPASISCKSSQSLLYSDAKTYLNWFQQRPGQSPRRLIYQISRLDPGVPDRFSGSGSGTDFTLKISRVEAEDVGVYYCLQGTHYPALFGQGTRLEIKR	28.3	318000	0.009
9TL variant M23 Fab (Fab, V domains shown, Fab; human IgG2 CH1 and kappa CL) VH: QVQLVQSGAEVKKPGASVKVSCKASGYYTEAYYIHWVRQAPGQGLEWMGRIDPATGNTKYAPRLQDRVTMTRDTSTSTVYMELSSLRSEDTAVYYCASLYSLPVYWGQGTTVTVSS VL: DVVMTQSPLSLPVTLGQPASISCKSSQSLLYSDAKTYLNWFQQRPGQSPRRLIYQISRLDPGVPDRFSGSGSGTDFTLKISRVEAEDVGVYYCLQGTHYPKLFGQGTRLEIKR	15.7	318000	0.005
